Measured values: patent publication US9249224B2 (RINAT NEUROSCIENCE CORP., priority 2011, dated 2016)

Tested on: ALS
Assay: Serum ALS levels in cynomolgus monkeys after a single antibody dose
Type: in vivo, cynomolgus monkey
Experimental: To determine if GHR antagonist monoclonal antibodies can affect IGF-1, IGFBP-3, and ALS levels in vivo by inhibiting the function of GHR, the effect of humanized anti-human GHR antibody SS1 was tested in cynomolgus monkeys. A dose-response study was conducted to test for changes in IGF-1, IGFBP-3, and ALS levels following a single dose of SS1. Eight naïve female cynomolgus monkeys were injected intravenously with a single dose of SS1 or negative control human IgG2, in 1×PBS 0.01% Tween™ 20. Two monkeys were dosed with 30 mg/kg SS1, two were dosed with 10 mg/kg SS1, two were dosed with 3 mg/kg SS1, and two were dosed with 30 mg/kg negative control human IgG2Δa on Day 1. […] Serum was also taken from the 30 mg/kg SS1 and negative control treated animals at 864 h post-dose.
Serum samples were analyzed for changes in ALS levels compared to baseline using a BioVendor™ Human ALS ELISA kit (cat. #RMEE35R).
Six naïve female cynomolgus monkeys were injected either intravenously or subcutaneously with a single dose of […] or negative control human IgG2Δa in 1×PBS 0.01% Tween™ 20. Two monkeys were dosed with 3 mg/kg SS1 intravenously, two were dosed with 3 mg/kg SS1 subcutaneously, and two were dosed with 3 mg/kg negative control human IgG2Δa subcutaneously on Day 1. Serum samples were taken from all animals at the following timepoints: pre-dose, 24 h, 72 h, 120 h, 168 h, 216 h, 264 h, 312 h, 360 h, 408 h, 456 h and 504 h.

B1: SS1: humanized GHR antagonist antibody; VL SEQ ID NO: 7, VH SEQ ID NO: 8; hIgG2Δa heavy chain SEQ ID NO: 134, light chain SEQ ID NO: 135 (antibody)
heavy: EVQLVESGGGLVKPGGSLRLSCAASGFTFSDAWMDWVRQAPGKGLEWVAEIRSKANYHATYYAESVKGRFTISRDDSKNTLYLQMNSLKTEDTAVYYCTLIRDYWGQGTLVTVSSASTKGPSVFPLAPCSRSTSESTAALGCLVKDYFPEPVTVSWNSGALTSGVHTFPAVLQSSGLYSLSSVVTVPSSNFGTQTYTCNVDHKPSNTKVDKTVERKCCVECPPCPAPPVAGPSVFLFPPKPKDTLMISRTPEVTCVVVDVSHEDPEVQFNWYVDGVEVHNAKTKPREEQFNSTFRVVSVLTVVHQDWLNGKEYKCKVSNKGLPSSIEKTISKTKGQPREPQVYTLPPSREEMTKNQVSLTCLVKGFYPSDIAVEWESNGQPENNYKTTPPMLDSDGSFFLYSKLTVDKSRWQQGNVFSCSVMHEALHNHYTQKSLSLSPGK
light: EIVLTQSPGTLSLSPGERATLSCTATSSVSSSYLNWYQQKPGQAPRLLIYSTSNLASGIPDRFSGSGSGTDFTLTISRLEPEDFAVYYCHQYHRSTPTFGGGTKVEIKRTVAAPSVFIFPPSDEQLKSGTASVVCLLNNFYPREAKVQWKVDNALQSGNSQESVTEQDSKDSTYSLSSTLTLSKADYEKHKVYACEVTHQGLSSPVTKSFNRGEC
modifications: Humanized and/or affinity matured antibody sequence
serum ALS levels (% change from baseline) (Table 12, cynomolgus monkeys, SS1 3 mg/kg IV single dose, 24 h post-injection): −23.0 +/− 4.0%
serum ALS levels (% change from baseline) (Table 12, cynomolgus monkeys, SS1 3 mg/kg IV single dose, 48 h post-injection): −41.7 +/− 3.6%
serum ALS levels (% change from baseline) (Table 12, cynomolgus monkeys, SS1 3 mg/kg IV single dose, 72 h post-injection): −45.4 +/− 0.9%
serum ALS levels (% change from baseline) (Table 12, cynomolgus monkeys, SS1 3 mg/kg IV single dose, 96 h post-injection): −50.7 +/− 2.3%
serum ALS levels (% change from baseline) (Table 12, cynomolgus monkeys, SS1 3 mg/kg IV single dose, 120 h post-injection): −48.0 +/− 0.4%
serum ALS levels (% change from baseline) (Table 12, cynomolgus monkeys, SS1 3 mg/kg IV single dose, 144 h post-injection): −45.5 +/− 8.4%
serum ALS levels (% change from baseline) (Table 12, cynomolgus monkeys, SS1 3 mg/kg IV single dose, 192 h post-injection): −50.7 +/− 8.8%
serum ALS levels (% change from baseline) (Table 12, cynomolgus monkeys, SS1 3 mg/kg IV single dose, 312 h post-injection): −22.0 +/− 8.2%
serum ALS levels (% change from baseline) (Table 12, cynomolgus monkeys, SS1 3 mg/kg IV single dose, 336 h post-injection): −23.7 +/− 6.4%
serum ALS levels (% change from baseline) (Table 12, cynomolgus monkeys, SS1 10 mg/kg IV single dose, 24 h post-injection): 27.3 +/− 32.1%
serum ALS levels (% change from baseline) (Table 12, cynomolgus monkeys, SS1 10 mg/kg IV single dose, 48 h post-injection): −9.4 +/− 23.4%
serum ALS levels (% change from baseline) (Table 12, cynomolgus monkeys, SS1 10 mg/kg IV single dose, 72 h post-injection): −8.0 +/− 35.2%
serum ALS levels (% change from baseline) (Table 12, cynomolgus monkeys, SS1 10 mg/kg IV single dose, 96 h post-injection): −24.1 +/− 23.6%
serum ALS levels (% change from baseline) (Table 12, cynomolgus monkeys, SS1 10 mg/kg IV single dose, 120 h post-injection): −17.5 +/− 30.4%
serum ALS levels (% change from baseline) (Table 12, cynomolgus monkeys, SS1 10 mg/kg IV single dose, 144 h post-injection): −46.5 +/− 1.9%
serum ALS levels (% change from baseline) (Table 12, cynomolgus monkeys, SS1 10 mg/kg IV single dose, 192 h post-injection): −39.4 +/− 3.3%
serum ALS levels (% change from baseline) (Table 12, cynomolgus monkeys, SS1 10 mg/kg IV single dose, 312 h post-injection): −38.7 +/− 4.1%
serum ALS levels (% change from baseline) (Table 12, cynomolgus monkeys, SS1 10 mg/kg IV single dose, 336 h post-injection): −40.4 +/− 0.4%
serum ALS levels (% change from baseline) (Table 12, cynomolgus monkeys, SS1 30 mg/kg IV single dose, 24 h post-injection): 3.9 +/− 4.2%
serum ALS levels (% change from baseline) (Table 12, cynomolgus monkeys, SS1 30 mg/kg IV single dose, 48 h post-injection): −35.1 +/− 1.9%
serum ALS levels (% change from baseline) (Table 12, cynomolgus monkeys, SS1 30 mg/kg IV single dose, 72 h post-injection): −34.9 +/− 10.5%
serum ALS levels (% change from baseline) (Table 12, cynomolgus monkeys, SS1 30 mg/kg IV single dose, 96 h post-injection): −48.8 +/− 8.0%
serum ALS levels (% change from baseline) (Table 12, cynomolgus monkeys, SS1 30 mg/kg IV single dose, 120 h post-injection): −41.2 +/− 13.9%
serum ALS levels (% change from baseline) (Table 12, cynomolgus monkeys, SS1 30 mg/kg IV single dose, 144 h post-injection): −50.0 +/− 4.4%
serum ALS levels (% change from baseline) (Table 12, cynomolgus monkeys, SS1 30 mg/kg IV single dose, 192 h post-injection): −50.2 +/− 2.0%
serum ALS levels (% change from baseline) (Table 12, cynomolgus monkeys, SS1 30 mg/kg IV single dose, 312 h post-injection): −47.1 +/− 2.7%
serum ALS levels (% change from baseline) (Table 12, cynomolgus monkeys, SS1 30 mg/kg IV single dose, 336 h post-injection): −50.1 +/− 4.4%
serum ALS levels (% change from baseline) (Table 14, cynomolgus monkeys, SS1 3 mg/kg IV single dose, 24 hour post-injection): −4.5 +/− 4.6%
serum ALS levels (% change from baseline) (Table 14, cynomolgus monkeys, SS1 3 mg/kg IV single dose, 72 hour post-injection): −31.1 +/− 10.1%
serum ALS levels (% change from baseline) (Table 14, cynomolgus monkeys, SS1 3 mg/kg IV single dose, 120 hour post-injection): −37.5 +/− 9.4%
serum ALS levels (% change from baseline) (Table 14, cynomolgus monkeys, SS1 3 mg/kg IV single dose, 168 hour post-injection): −32.9 +/− 4.0%
serum ALS levels (% change from baseline) (Table 14, cynomolgus monkeys, SS1 3 mg/kg IV single dose, 264 hour post-injection): −9.3 +/− 2.5%
serum ALS levels (% change from baseline) (Table 14, cynomolgus monkeys, SS1 3 mg/kg IV single dose, 312 hour post-injection): −4.9 +/− 3.0%
serum ALS levels (% change from baseline) (Table 14, cynomolgus monkeys, SS1 3 mg/kg IV single dose, 360 hour post-injection): −9.7 +/− 9.6%
serum ALS levels (% change from baseline) (Table 14, cynomolgus monkeys, SS1 3 mg/kg SQ single dose, 24 hour post-injection): −15.9 +/− 0.2%
serum ALS levels (% change from baseline) (Table 14, cynomolgus monkeys, SS1 3 mg/kg SQ single dose, 72 hour post-injection): −42.7 +/− 0.5%
serum ALS levels (% change from baseline) (Table 14, cynomolgus monkeys, SS1 3 mg/kg SQ single dose, 120 hour post-injection): −41.1 +/− 7.1%
serum ALS levels (% change from baseline) (Table 14, cynomolgus monkeys, SS1 3 mg/kg SQ single dose, 168 hour post-injection): −33.7 +/− 6.5%
serum ALS levels (% change from baseline) (Table 14, cynomolgus monkeys, SS1 3 mg/kg SQ single dose, 264 hour post-injection): −16.5 +/− 13.2%
serum ALS levels (% change from baseline) (Table 14, cynomolgus monkeys, SS1 3 mg/kg SQ single dose, 312 hour post-injection): −5.0 +/− 13.6%
serum ALS levels (% change from baseline) (Table 14, cynomolgus monkeys, SS1 3 mg/kg SQ single dose, 360 hour post-injection): −10.0 +/− 10.2%
